In one assay the target is T1, DHT01-4arm-01 chain C.
T1 construct: also called DHT01-4arm-02 chain C; C2-DHT01-01 chain B
T1 chain: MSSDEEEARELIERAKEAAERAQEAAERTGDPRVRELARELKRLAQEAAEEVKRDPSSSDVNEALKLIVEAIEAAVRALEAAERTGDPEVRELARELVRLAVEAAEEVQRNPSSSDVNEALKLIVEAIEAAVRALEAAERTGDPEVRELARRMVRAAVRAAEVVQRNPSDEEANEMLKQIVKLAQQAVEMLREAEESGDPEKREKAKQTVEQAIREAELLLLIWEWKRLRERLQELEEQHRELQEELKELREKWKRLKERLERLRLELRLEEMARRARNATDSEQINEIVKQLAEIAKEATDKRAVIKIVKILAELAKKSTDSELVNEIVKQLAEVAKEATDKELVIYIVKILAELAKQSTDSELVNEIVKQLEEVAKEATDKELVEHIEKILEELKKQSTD
Briefly: bicistronic expression, SAXS, negative stain EM; A2B2 ring.

Assay [1] deals with T2, DHT03 chain C (SEQ ID NO: 59).
T2 chain: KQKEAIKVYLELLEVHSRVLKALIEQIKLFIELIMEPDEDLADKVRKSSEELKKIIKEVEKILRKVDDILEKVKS
The assay can be described thus: X-ray crystal structure, 3.35 A. How it is done:
Purified DHT03_2arm_A21/B21/C (long) protein at a concentration of 41 mg/mL was used to conduct sitting drop, vapor-diffusion crystallization trials using the JCSG Core I-IV screens (NeXtal Biotechnologies). Crystals of DHT03_2arm_A21/B21/C long grew from drops consisting of 100 nL protein plus 100 nL of a reservoir solution consisting of 2M (NH4)2SO4, 0.1M sodium acetate pH4.6 at 18° C., and were cryoprotected by supplementing the reservoir solution with 2.2M sodium malonate pH5. Native diffraction data was collected at APS beamline APS-23-ID-B, indexed to P1 and reduced using XDS⁴⁸. The structure was phased by molecular replacement using Phaser™. The chain A of a set of ˜49 lowest energy predicted models from Rosetta™ were used as search models. Several of these models gave clear solutions. Chain B and Chain C were fitted manually in Coot™ and rigid body refinement by Phenix™. The following model building and refinement were done by Coot™ and Phenix™.

Assay [2] addresses T3, DHT05_3arm_A62/B71/C62 chain C.
T3 chain: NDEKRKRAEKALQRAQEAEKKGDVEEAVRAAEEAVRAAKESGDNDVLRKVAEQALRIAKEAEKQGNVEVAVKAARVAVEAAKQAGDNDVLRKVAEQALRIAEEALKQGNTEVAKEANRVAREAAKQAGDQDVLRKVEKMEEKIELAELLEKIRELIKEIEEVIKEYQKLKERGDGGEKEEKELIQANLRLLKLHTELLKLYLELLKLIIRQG
The assay can be described thus: SEC and SAXS; chains of one ABC heterotrimer.

Assay [3] has as its target T2, DHT03 chain C (SEQ ID NO: 59). The assay can be described thus: chains mixed and annealed, SEC, negative stain EM; A3B3C3 ring.
Assay [4] shares this target. The assay can be described thus: chains mixed and annealed, SEC, negative stain EM; A4B4C4 ring.
Assay [5] concerns the target T4, DHT03_3arm_A21/B21/C82 chain C.
T4 construct: also called chain C DHR82 fusion; chain C of C3-DHT03-01-DHR82 and C4-DHT03-01-DHR82
T4 chain: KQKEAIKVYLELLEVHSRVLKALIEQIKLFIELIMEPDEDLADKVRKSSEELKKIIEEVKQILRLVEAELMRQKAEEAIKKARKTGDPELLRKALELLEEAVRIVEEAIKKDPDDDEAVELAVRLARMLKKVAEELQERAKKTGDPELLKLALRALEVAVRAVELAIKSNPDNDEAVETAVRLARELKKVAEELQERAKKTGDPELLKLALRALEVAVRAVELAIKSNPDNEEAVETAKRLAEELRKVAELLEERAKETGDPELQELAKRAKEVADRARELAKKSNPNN
The assay can be described thus: three components purified separately, mixed equimolar, heat annealed, SEC, negative stain EM. The text has this: As is evident from the images in FIGS. 4c and 4d, the cyclic structures retain one of the original heterotrimer helical hairpins in each corner; these short, outward facing protein chains provide fusion points for further elaboration of higher order symmetric assemblies. To evaluate the potential for building up larger nanostructures using the rings as hubs, and explore the modularity of the designed building blocks, we replaced the original outward facing chain C helical hairpin with the chain C DHR82 fusion (as it was the largest 4-repeat DHR) from FIG. 3d, row 8. This was done for two designs (C3-DHT03-01 and C4-DHT03-01), with chain C replaced by fusion C82 through expressing and purifying the three components separately, mixing them in equal molar quantities, and reconstituting using heat annealing.
An AKTA PURE FPLC system was used. Heterotrimer bases, arm extensions, coiled coil C2 rings, and all constructs mentioned in SI were passed through a Cytvia Superdex S200 Increase 10/300 GL column, while C3/C4 rings made from DHT03 were passed through a Cytvia Superdex S6 Increase 10/300 GL column. The mobile phase was TBS (25 mM Tris-HCl pH 8.0, 100 mM NaCl or 25 mM Tris-HCl pH 8.0, 150 mM NaCl). Samples ran at a flow rate of 0.75 ml/min and fractions were collected at 0.5 ml.

B1: C2-DHT01-01 chain A (designed binder)
chain: DEEEKLRESLEEQKKRVKEIEREHEEIREALKRLQQSVLRQAVRLAKLGDDSEMIRRIVKDLMQQAIEATDEREVEKIKKAAEELSKNSTDEDLKKQIKAVQELVKAVETVREAKKQGDPKKVLKAAEIAMEVATWAAERNDEMIFKLAAKMAKEVAERLKEVAKKENDSALELAAEAIKAAVEALEAALRTGDPRVRELAKELVRLAKEAAEEATRDSKDSDKNEALKLIVEAIKAAVRALEAAERTGDPEVRELARELVRLAVEAAEEVLRNPSSSDVNRALKLIVRAIEAAVQLLEHAEKSGDPEVRELARELVRRLVEAAEEVQRNPSDEQKNTQLRRLIAKAEVWLLNEEFKEAEKRFRKLQEETKKALEEVEELNQRFEEALEEVERIKRRQK
notes: two copies in the A2B2 ring; ring designs kept a C-terminal His-tag in frame
On to B1, for which, in the assay with DHT01-4arm-01 chain C, the binding result is given as “binds”.

B2: DHT03_2arm_A21/B21/C long chain B (designed binder)
chain: SEKEKVEELAQRIREQLPDTELAREAQELADEARKSDDSEALKVVYLALRIVQQLPDTELAREALELAKEAVKSTDSEALKVVELALKIVQQLPDTELAKEALELAKEAVKSTDSEALKVVELALEIVQQLPDTELAKEALKLAKEAVKSTDSEALKVVYLALRIVQQLPDTELAREALELAKEAVKSTDSEQLEVVRLALEIVQLAPDTRLARAALKLAKEAVKSTDQEELKKVKAILRVASEVLKLEEEAKKSQEEVERLKQEVEKASKAGLDHEGDSRIFKKIHDVVTKQIKVILRLIAVYAELVAIIG
Consider B2, for which the binding result in assay [1] is given as “binds”.

B3: C2-DHT01-03 chain A (designed binder)
chain: MGDEEEKLRESLEEQKKRVKEIEREHEEIREALKRLQQSVLRQAVRLAKLGDDSRMIASIIRDLVKQALRATDEREQKKIKKALEELAQNATDEALKLLIEAAKSLLRAAEASERGDEEEFRKAAEKALELAKRLVEIAKKQSLPEFVLAAAEIALAVAELAAKNNDSEVLEKALRSAAEVAQRLLEVAEKENNQELVEEAAKILKRALEIVEKAAKKLKERNDQSSDVNRALTLIRRAQEAADQLLEHARKSGDPEVWELAIRLVARLVEAAAKVAANMSDEQQNTQLRRLIAKAEVWLLNEEFKEAEKRFRKLQEETKKALEEVEELNQRFEEALEEVERIKRRQKGGSGWSHPQFEK
notes: two copies in the A2B2 ring
For B3, the binding result with DHT01-4arm-01 chain C is given as “binds”.

B4: DHT05_3arm_A62/B71/C62 chain B (designed binder)
chain: SEVEKRLLEIHRQVAESHRILVEVHEALIEALRGNSEEAKEKLKELVKKLEKIIRQEELLLQLLEALVKALQAKKEGDPELVLEAAKDALRVAEQAAKEGDKEMFKQAAELALWLAKQLVEVASKEGDPELVLEAAKVALRVAELAAKNGDKEVFKKAAESALEVAKRLVEVASKEGDPELVEEAAKVAEEVRKLAKKQGDEEVYEKARETAREVKEELKRVREEK
Turning to B4, the binding result in assay [2] is recorded as “binds”.

B5: C3-DHT03-02 chain B (designed binder)
chain: TWQWVLINISEEARQLIEKAVRAISKKEGTEVHFEKDDGVLHIRVKNLHEKRAREIHKVAKLILEVAAAERIVRERPGSNLAKKALEIILRAAEELAKADVDAALEAAVRAAEKVVREQPGSNLAKKALEIILRAAEELAKLPDPEALKEAVKAAEKVVREQPNSELAKKAREIIKRAAEELAKSPDKEAIQEAATALAILIELILSNTELAREAKELATEARKATDSEAAKVVFLALFIVVQLPDTELAKEALELAKEAVKSTDSEALKVVELALEIVQQLPDTELAKEALKLAKEAVKSTDSEALKVVYLALRIVQQLPDTELAREALELAKEAVKSTDSEQLEVVRLALEIVQLAPDTRLARAALKLAKEAVKSTDQEELKKVKAILRVASEVLKLEEEAKKSQEEVERLKQEVEKASKAGLDHEGDSRIFKKIHDVVTKQIKVILRLIAVYAELVAIIG
notes: three copies in the A3B3C3 ring
On to B5, for which, in assay [3], the binding result is “binds”.

B6: C4-DHT03-02 chain B (designed binder)
chain: MGTTNFHLINGSEEARQIIEKIVEEVARKAGTEVHFEKSDGTLEIRVKNLHEELERRIKKAIEAALAAQIAKKLAEQIERQLSNTELAKEAKKLATEAEKARDSEAVQVVLLALEIVQQLPDTELAKEALELAEEAVKSTDSEALKVVKLALEIVQQLPDTELAREALELAKEAVKSTDSEALKVVYLALRIVQQLPDTELARLALELAKKAVEMTAQEVLEIARAALKAAQAFPNTELAELMLRLAEVAARVMKELERNDEEIKKSDELDDESLLEDIVELLKEIIKLWKILVEVSDVMLKLIS
notes: four copies in the A4B4C4 ring
Consider B6, for which, in assay [4], the binding result was “binds”.

B7: C4-DHT03-01 chain B (designed binder)
chain: MGTTNFHLINGSEEARQLIQKAVEAISKKEGTEVHFEKSDGTLEIRVKNLHPRQEDLIKKFIEALLLALVAKGELEQAEKEGDAEVALRAVEKVVRVAELLLRLAKEAGSEEALKAALEIAEQAARLAARVFTLAVKQNDSDVAKRAVELIKRVAELLKRIAKESGSEEAKERAEKVEKAAEVAEIAARILDQLSNTELAKEALKLASEALKSDIKEALEVVRLALRIVQQLPDTELAREALELAKEAVKSTDSEQLEVVRLALEIVQLAPDTRLARAALKLAKEAVKSTDQEELKKVKAILRVASEVLKLEEEAKKSQEEVERLKQEVEKASKAGLDHEGDSRIFKKIHDVVTKQIKVILRLIAVYAELVAIIG
notes: four copies in the A4B4C4 ring; also called C4-DHT03-01-DHR82 chain B
With B7, the binding result in assay [4] and in assay [5] was “binds” each time.

B8: C2-DHT01-02 chain B (designed binder)
chain: DEEEKLRESLEEQKKRVKEIEREHEEIREALKRLQQSVLRQAVRLAKLGDDSEMIQRIVEDLARQAMEATDDREVEKIEKALDELAKNSTDEELKKVIKVAKTLVRVAKLVKEAEELLRQAKEKGSEEDLEKALRTAEEAAREAKKVLEEAEKAQIAEAALLAVELVVRVAELLLRIAKESGSEEALERALRVAEEAARLAKRVLELAEKQGDPEVALRAVELVVRVAELLLRIAKESGSSEALTRAWRVAIEAFQLAVRVLKLAQKQNDSEVARRATELMKRVAELMERIARESGSSAFKAAAEALEAAARTNDKEVVDLARELARLAIEALEEVERNSKSSDVNRALKLILRAIKAAVQLLEHAEKSGDPEVRELARELVRRLVEAAEEVQRNPSDEQKNTQLRRLIAKAEVWLLNEEFKEAEKRFRKLQEETKKALEEVEELNQRFEEALEEVERIKRRQK
notes: two copies in the A2B2 ring
Turning to B8, the binding result with DHT01-4arm-01 chain C is given as “binds”.

B9: C3-DHT03-01 chain B (designed binder)
chain: NTHFIVVHGGEEARQLAETAVREISKKEGTEVRFEKKDGLLSIEVKNLSEELQRLIQELLQLLVRLAALLEAVRAVEEAIKRNPDNDEAVETAVRLARELKKVAELLQELAKKAGVPAILRGALLALEVAVRAVELAIKSNPDNDEAVETAVRLAVVKLALEIVQQLPDTELAREALELAKEAVKSTDSEALKVVYLALRIVQQLPDTELARLALELAKKAVEMTAQEVLEIARAALKAAQAFPNTELAELMLRLAEVAARVMKELERNDEEIKKSDELDDESLLEDIVELLKEIIKLWKILVEVSDVMLKLIS
notes: three copies in the A3B3C3 ring; also called C3-DHT03-01-DHR82 chain B
On to B9, for which the binding result in assay [3] and in assay [5] was “binds” each time.

(Values after patent US20240029824A1 (University of Washington, published 2024).)
